experiment: soluble on expression in E. coli; label from the status in PepcDB or PDB records

Soluble on expression in E. coli, soluble:
MGTFREEGSVSSGTKQEFHTGKLVTTKGDKELLIDNEKVTSGHTTTTRRSCSKVITKTVTNADGRTETTKEVVKSEDGSDCGDADFDWHHTFPSRGNLDDFFHRDKDDFFTRSSHEFDGRTGLAPEFAALGESGSSSSKTSTHSKQFVSSSTTVNRGGSAIESKHF
MGTGSGGPIGVSPFHSRGALKGFVISGRWPDSTKEWAQLLMVAVRVASLPGLLSTTTVFGAREELPDEPEPGTVGLVLAEGTVFGESAIQPGYFADHQPPALLMLHPPSETTPSLPECTGAASGCVLLPGLPYLGLEHRAAWVEAEADGTITSMVSRVGVDPISHPDTAILAMLLAA
MGYPVILHLRGRRAVVVGGGKVAARKIHGLLEAGAEIVMIAPEAEPELQALAAGGMIVWKKKRFDPDDLAEAFLVIAATNDRKVNEAVTQAASSGQLVNVVDDPERCDFHVPAVIRRGPLTIAVSTGGASPAVARRIRRELEEKYGEEYRPYLEFLQRARGIVLREVEDAEGRKRLFQALAADSFRQSGRWEEEFTRLLAKEKERNKEGERGR
MHAFPLTLDNRLAEALPLWRNLARTDRAPRRNIDLADWKADWRELIAALDRFSRSHGYRQPFAAQGHAALENAWAWGQAAENASTLLLKAIDRGLAGAELRSIYLETAALWLDYSRLLGAARDSLREQGEVDFETAPALAPRTGQYPFALQLLAMGVLLDAQELIPALVEEVLQFDTDRLLDYLGAAALGLTSASEETFHPRPFGQLRAFFEEADGSDAQALAPYLQSQYREFFQLSPKAQKKTRRLTGPYAWGWWAMEVSALGVLYGWDDGVLRASPHYLGDLVDYARARGDA
MHALVQLRGEVNMHTDIQDTLEMLNIHHVNHCTLVPETDAYRGMVAKVNDFVAFGEPSQETLETVLATRAEPLEGDADVDDEWVAEHTDYDDISGLAFALLSEETTLREQGLSPTLRLHPPRGGHDGVKHPVKEGGQLGKHDTEGIDDLLEAMR
MHDFVGFMNKISQINRDLDKYDHTINQVDSLHKRLLTEVNEEQASHLRHSLDNFVAQATDLQFKLKNEIKSAQRDGIHDTNKQAQAENSRQRFLKLIQDYRIVDSNYKEENKEQAKRQYMIIQPEATEDEVEAAISDVGGQQIFSQALLNANRRGEAKTALAEVQARHQELLKLEKSMAELTQLFNDMEELVIEQQ

Soluble on expression in E. coli, not soluble:
MGSVITKETVLQENIYLKKLSGLEPVDDYDPFWNKLLSFSLKFDDDDEDTRIALESALDDHLQCLMYNTQTTGNFAAFIRLFLRRATELKTSEQCENKIYLWQTSNALLILRYIARFLTQRMTEKEFVRIFAKSHESTETESSSTSSSSDEEDDDEQKSENENNNGATKYIPIVFQNTAEEFTYELVSILINISVNETTLAIHVEAVRCLLTLLSSQLYNESIVNTSIVFRFFIDGSCAKHAASLTKTLLLNYLIHNSEYHMTVQKPQESIVFGLASSMWSMVQMATGIDSAEEEKKPPLTLGNLSILLLLNLSCHQPLNSSNPFKETLALFQNAQEVSTLPTQIVSFKIDYNGLYERLCATAGQEPPMLLLYMLLQANSGFRNYVLSRINLENLVVPVLRILHDGVATSNNSHHVYLALIVALILSEDDIFCKIIHETMIKDLGWLDSDFSVREISLGGLTTLVLVRAIQKNALKTRDRYLHTNCLAALANMSAFFKNLAPIVCQRLISLLDLLTKRHAKMVDHMRVSSQNDVADGQPINFHDDITALEEGIRTLLEIINSALCGGLRHNSHLIYNLLYHRALFDAYVQHPMFQDLLVNIAAVISHFSSKVIHVPAGDGSTMLQIIEKEANIWPTDRLAKFPELKFRYVEDEYTVDFFVPYVWRLSVQHSGIYFETSRIKIFNAQSIA
MGVILLLLIIVFSFSKEAYYCIQVLSSRDLSSAERAYRKLADYPHARIEKIGDYYTVRVGLWENKSKAKEYLSQVKSVYPGAFLRTCYYIEDRIVSINKGNVKKKVESFNGKELVLHGKNEKELICKAVKKVFEDIVSFEGKLTKREITFKSYFPYSVADAVNYALILNKKEGFIPVRCRVYKRDKITYVLELEGFKNGKVKGIKAVDYASVTYRNKVLRLKLIF
MGVTLAKGGNVSLDKQAPNLTAVAVGLGWDARSTTGHEFDLDASALATGENKKVLSDQHFVFYNNLRSPDGSIQHEGDNLTGEGDGDDEVINVDLKAVPPNVTNIFFPVSIHEAELRGQNFGQVTNAFIRVVDRSTGNELVRYDLSEDASSETAMTFGELYRHNGEWKFRAIGQGYASGLSGIARDYGVNI

— the DeepSol protein solubility set
